What was measured:
[1] = target: T1, BmSTPR (FMBP-1 STPR domain) (Bombyx mori, UniProt Q5FBS0 99-193); assay: ITC
T1 sequence: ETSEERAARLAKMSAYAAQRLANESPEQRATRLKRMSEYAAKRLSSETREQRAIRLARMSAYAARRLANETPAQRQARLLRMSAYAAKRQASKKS

[2] = target: T1, BmSTPR (FMBP-1 STPR domain); assay: X-ray crystal structure
[3] = target: T2, BmSTPR with R1 deleted (R2-R4) (Bombyx mori, UniProt Q5FBS0 122-193); assay: ITC
T2 sequence: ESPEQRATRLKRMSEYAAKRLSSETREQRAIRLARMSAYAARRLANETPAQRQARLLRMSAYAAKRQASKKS

B1: (gcca)3 (dsDNA)
DNA 1: GCCAGCCAGCCA
DNA 2: TGGCTGGCTGGC
In the case of B1, the Kd [1] is reported as 44600 ± 14300 nM.

B2: (auac/gtat)4 (dsDNA)
DNA 1: AUACAUACAUACAUAC
DNA 2: GTATGTATGTATGTAT
modifications: t2 of each unit to (deoxy)uridylate
B2 gave a Kd [1] of 183 nM.

B3: 18-bp DNA, (atac)4 plus one terminal nt each side (dsDNA)
DNA 1: CATACATACATACATACA
DNA 2: TGTATGTATGTATGTATG
B3: binds [2].

B4: 20-bp (+290) (dsDNA)
DNA 1: AGTATTTACATAGATTCATC
DNA 2: GATGAATCTATGTAAATACT
In the case of B4, the Kd [3] is reported as 547 nM.

— PMC4856987
